Measurements from patent US20250283065A1, “TRUNCATED POLYPEPTIDES HAVING PROTEIN LIGASE ACTIVITY AND METHODS OF PRODUCTION THEREOF” (NANYANG TECHNOLOGICAL UNIVERSITY, priority 2022, published 2025).

B1: acid-activated OaAEP1b-C247A (protein)
chain: MVRYLAGAVLLLVVLSVAAAVSGARDGDYLHLPSEVSRFFRPQETNDDHGEDSVGTRWAVLIAGSKGYANYRHQAGVCHAYQILKRGGLKDENIVVFMYDDIAYNESNPRPGVIINSPHGSDVYAGVPKDYTGEEVNAKNFLAAILGNKSAITGGSGKVVDSGPNDHIFIYYTDHGAAGVIGMPSKPYLYADELNDALKKKHASGTYKSLVFYLEACESGSMFEGILPEDLNIYALTSTNTTESSWAYYCPAQENPPPPEYNVCLGDLFSVAWLEDSDVQNSWYETLNQQYHHVDKRISHASHATQYGNLKLGEEGLFVYMGSNPANDNYTSLDGNALTPSSIVVNQRDADLLHLWEKFRKAPEGSARKEEAQTQIFKAMSHRVHIDSSIKLIGKLLFGIEKCTEILNAVRPAGQPLVDDWACLRSLVGTFETHCGSLSEYGMRHTRTIANICNAGISEEQMAEAASQACASIP
B2: acid-activated OaAEP1b-C247A: full-length OaAEP1b-C247A proenzyme expressed in E. coli and activated at low pH according to reference [17] (protein, listed as Oldenlandia affinis)
chain: B1 chain
modifications: acid-activated
B3: OaAEP1b-C247A-Δ351 with His-tag and TEV cleavage sequence (construct for recombinant expression) (protein)
chain: MHHHHHHSSGVDLGTENLYFQSVGTRWAVLIAGSKGYANYRHQAGVCHAYQILKRGGLKDENIVVFMYDDIAYNESNPRPGVIINSPHGSDVYAGVPKDYTGEEVNAKNFLAAILGNKSAITGGSGKVVDSGPNDHIFIYYTDHGAAGVIGMPSKPYLYADELNDALKKKHASGTYKSLVFYLEACESGSMFEGILPEDLNIYALTSTNTTESSWCYYCPAQENPPPPEYNVCLGDLFSVAWLEDSDVQNSWYETLNQQYHHVDKRISHASHATQYGNLKLGEEGLFVYMGSNPANDNYTSLDGNALTPSSIVVNQRDAD

Legend:
OaAEP1b-C247A-Δ351 = assay: Active site titration by FRET ligation assay with covalent inhibitor; assay type: biochemical, Oldenlandia affinis; conditions: enzyme 280 nM, 1 hour incubation
Description: Active site titration: The procedure described in reference was followed. The enzyme preparation was diluted to a concentration of 280 nM using a buffer containing 20 mM sodium phosphate at pH 6.5, 5 mM 2-Mercaptoethanol. Solutions containing serial twofold dilution of inhibitor YVAD-cmk were prepared in a black microtiter plate (Greiner Bio-One) using buffer as diluent. The enzyme was subsequently added to the wells containing the inhibitor to a final volume of 50 μL. The plate was incubated for 1 hour at room temperature before adding FRET peptides (PIE {EDANS} YNAL (SEQ ID NO:18) and GIK {DABSYL} SIP (SEQ ID NO: 19)), which were mixed at a molar ratio of 1:3 giving a final enzyme: substrate molar ratio of 1:200. The EDANS fluorescence signal was measured with an excitation wavelength of 336 nm and an emission wavelength of 490 nm. Relative fluorescence units (RFU) of quenched EDANS signal were plotted against time. The value of the initial velocity (Vi) was determined from the slope of the RFU (t) curve. The measured value of Vi was subsequently normalized by dividing with the initial rate obtained in the absence of inhibitor (control V0). The calculated Vi/V0 ratio was plotted against inhibitor concentrations, generating an inhibition curve. […]

[1] = biological target: mixture of FRET peptides A: PIE{EDANS}YNAL and B: GIK{DABSYL}SIP at a molar ratio of 1:3
[2] = tested on: peptides PIE {EDANS} YNAL and GIK {DABSYL} SIP; assay: FRET ligation kinetics assay; assay type: biochemical; conditions: 50 nM enzyme, peptides A:B molar ratio 1:3
Description: Kinetics assay: The kinetic properties of the peptide ligation of the constitutively active PAL were studied using a FRET assay. Two peptides synthesized by GenScript: PIE {EDANS} YNAL (SEQ ID NO:18) and GIK {DABSYL} SIP (SEQ ID NO:19) were mixed at a molar ratio of 1:3. Upon ligation, the peptide PIE {EDANS} YNGIK {DABSYL} SIP (SEQ ID NO: 20) is produced. 50 nM of PAL enzyme is mixed with various concentrations of the peptide mixture. The EDANS fluorescence signal was measured with an excitation wavelength of 336 nm and an emission wavelength of 490 nm. A reduction in EDANS fluorescence signal occurs upon ligation of the two peptides due to quenching by DABSYL. The variation in fluorescence signal for each substrate mixture concentration was measured after addition of the enzyme to initiate the reaction. The rate of decrease in fluorescence signal during the first 30 seconds after enzyme addition was plotted against the substrate concentration to obtain the Vmax, kcat and KM values for each enzyme.
Next, using a FRET ligation assay, the ligase activity of the truncated OaAEP1b-C247A-Δ351 was compared with its acid-activated zymogen counterpart. Briefly, 50 nM of either enzyme was added to a mixture of two peptides A: PIE (EDANS) YNAL (SEQ ID NO:18) and B: GIK (DABSYL) SIP (SEQ ID NO:19). These two peptides were mixed in a A:B molar ratio of 1:3. Upon ligation, the fluorescence signal emission of the EDANS moiety of A (λem=490 nm) becomes quenched by the DABSYL moiety of B. (FIG. 7A). This assay the ligation rate to be followed between both peptides in real-time, giving access to the kinetic parameters of the truncated enzyme.

[3] = biological target: OaAEP1b-C247A-Δ351 with His-tag and TEV cleavage sequence (construct for recombinant expression) (Oldenlandia affinis); assay: cell-based or functional assay

| Molecule | Km (FRET ligation assay) [1] [µM] | Vmax (FRET ligation assay) [1] [RFU/see] | further results |
| --- | --- | --- | --- |
| ac-YVAD-cmk [reference compound] | – | – | minimal concentration of inhibitor necessary for a complete inhibition of the ligation activity (OaAEP1b-C247A-Δ351): 150 nM |
| B1 | 8.34 | 14.32 | – |
| B2 | – | – | Vmax [2]: 14.32 RFU/see |
| B3 | 8.16 | 6.40 | – |
| YVAD (N-terminal acetyl; C-terminal chloromethylketone (cmk)) [Ac-YVAD-cmk] | – | – | fraction of the measured protein concentration that is active and amenable to complete inhibition (active site titration) [3]: 53%; minimal concentration of inhibitor necessary for a complete inhibition of the ligation activity (active site titration, enzyme at 280 nM) [3]: 150 nM |
